Measured values as given in patent US20060193821, “Aptamers to the human IL-12 cytokine family and their use as autoimmune disease therapeutics” (published 2006).

Experiments:
[1] = target: T1, IL-23 (human, p19/p40 heterodimer) (Homo sapiens, UniProt Q9NPF7;P29460 SEQ:20-189,SEQ:23-328); experiment: filter; no binding; conditions: tags: R&D Systems, carrier free
Excerpt: The fraction aptamer bound vs. [IL-23] was used to calculate the KD by fitting the following equation to the data: Fraction aptamer bound=amplitude*([IL-23]/(KD+[IL-23]))+background binding.
Table 25 below summarizes the minimized sequences and the parent clone from which they were derived, and Table 26 summarizes the binding characterization from direct binding assays (+/−tRNA) and competition binding assays for the minimized constructs tested.

[2] = target: T1, IL-23 (human, p19/p40 heterodimer); experiment: filter; 1X SHMCK, 1 mM Mg, 1 mM Ca, 0.1 mg/mL tRNA, RT; conditions: tags: R&D Systems, carrier free; label: 5'-32P
Experimental: (§1) Monitoring Progress of rRfY Selection. Dot blot binding assays were performed throughout the selections to monitor the protein binding affinity of the pools. Trace ³²P-labeled RNA was combined with a dilution series of h-IL-23 and incubated at room temperature for 30 minutes in 1×SHMCK (20 mM Hepes, 120 mM NaCl, 5 mM KCl, 1 mM MgCl₂, 1 mM CaCl₂, pH 7.4) plus 0.1 mg/mL tRNA for a final volume of 20 μL. The binding reactions were analyzed by nitrocellulose filtration using a Minifold I dot-blot, 96-well vacuum filtration manifold (Schleicher & Schuell, Keene, N.H.). A three-layer filtration medium was used, consisting (from top to bottom) of Protran nitrocellulose (Schleicher & Schuell), Hybond-P nylon (Amersham Biosciences) and GB002 gel blot paper (Schleicher & Schuell). RNA that is bound to protein is captured on the nitrocellulose filter, whereas the non-protein bound RNA is captured on the nylon filter. The gel blot paper was included simply as a supporting medium for the other filters. Following filtration, the filter layers were separated, dried and exposed on a phosphor screen (Amersham Biosciences, Piscataway, N.J.) and quantified using a Storm 860 Phosphorimager® blot imaging system (Amersham Biosciences).
(§2) When a significant positive ratio of binding of RNA in the presence of h-IL-23 versus in the absence of h-IL-23 was seen, the pools were cloned using a TOPO TA cloning kit (Invitrogen, Carlsbad, Calif.) according to the manufacturer's instructions. For the h-IL-23 and X-IL-23 selections, the Round 8 pool templates were cloned, and 32 individual clones from each selections were assayed in a 1-point dot blot screen (+/−75 nM h-IL-23, as well as a separate screen at +/−75 nM h-IL-12). For the PN-IL-23 selection, the Round 10 pool was cloned and sequenced, and 8 unique clones were assayed for protein binding in a 1-point dot blot screen (+/−200 nM h-IL-23 and a separate screen at +/−200 nM h-IL-12). Subsequently, the Round 10 PN-IL-23 pool was re-cloned for further sequences, as well as the R12 PN-IL-23 pool, and the clones were assayed for protein binding in a 1 point do blot screen (+/−100 nM h-IL-23 or +/−200 nM h-IL-12).

[3] = target: T2, IL-12 (human, p35/p40 heterodimer) (Homo sapiens, UniProt P29459;P29460 SEQ:57-253,SEQ:23-328); experiment: filter; 1X SHMCK, 0.1 mg/mL tRNA, RT; conditions: label: 5'-32P
Experimental: as §1, §2

[4] = target: T2, IL-12 (human, p35/p40 heterodimer); experiment: filter; no significant binding; 1X SHMCK, 0.1 mg/mL tRNA; conditions: label: 5'-32P
Experimental: as §1, §2

[5] = target: T1, IL-23 (human, p19/p40 heterodimer); experiment: cell_activity; Pathscan pSTAT3; conditions: tags: R&D Systems, carrier free
Experimental: Inhibition of IL-23-induced STAT3 phosphorylation was measured using the Pathscan® Phospho-STAT3 (Tyr705) Sandwich ELISA Kit (Cell Signaling Technology, Beverly, Mass.).
Similar to the TransAM™ Assay method previously described, the Pathscan® Phospho-STAT3 (Tyr705) Sandwich ELISA Kit detects endogenous levels of Phospho-STAT3 (Tyr705) protein by using a STAT3 rabbit monoclonal antibody which has been coated onto the wells of a 96-well plate. After incubation with cell lysates, both nonphospho- and phospho-STAT3 proteins are captured by the coated antibody. A phospho-STAT3 mouse monoclonal antibody is added to detect the captured phospho-STAT3 protein, and an HRP-linked anti-mouse antibody is then used to recognize the bound detection antibody. HRP substrate, TMB, is added to develop color, and the magnitude of optical density for this developed color is proportional to the quantity of phospho-STAT3 protein.
PHA Blasts were isolated and prepared as described above and treated with hIL-23 at a final constant concentration of 6 ng/mL (R&D Systems, Minneapolis, Minn.) to induce STAT3 activation, instead of using 3 ng/mL as previously described with the TransAM™ assay. Clones were screened by using a 6-point […] titration from 0 to 700 nM in 3 fold dilutions in combination with a constant IL-23 concentration of 6 ng/mL of IL-23 (R&D Systems, Minneapolis, Minn.) to induce STAT3 activation, instead of using 3 ng/mL as previously described with the TransAM™ assay. Lysates of treated cells were prepared using the buffers provided by the Pathscan kit, and the assay was run according to the manufacturer's instructions. IC₅₀s for the full length clones were calculated from the dose response curves.

[6] = target: T1, IL-23 (human, p19/p40 heterodimer); experiment: filter; DPBS Ca Mg; conditions: tags: R&D Systems, carrier free
Experimental: The dot blot binding assay previously described was used to characterize the relative potency of the majority of the aptamers synthesized. For KD determination, chemically synthesized aptamers were purified using denaturing polyacrylamide gel electrophoresis, 5′end labeled with γ-³²P ATP and were tested for direct binding to full human IL-23. An 8 point protein titration was used in the dot blot binding assay (either {100 nM, 30 nM, 10 nM, 3 nM, 1 nM, 300 pM, 100 pM, 0 pM} or {10 nM, 3 nM, 1 nM, 300 pM, 100 pM, 30 pM, 10 pM, 0 pM}) in Dulbecco's PBS (with Mg⁺⁺ and Ca⁺⁺) with 0.1 mg/mL BSA. KD values were calculated by fitting the equation y=(max/(1+K/protein))+yint using KaleidaGraph (KaleidaGraph v. 3.51, Synergy Software). Sequences of the ARC979 derivatives synthesized, purified and assayed for binding to IL-23 as well as the results of the protein binding characterization are tabulated below in Tables 29 and 30.

T2 sequence (P29459 23-219, chain 1 of 2): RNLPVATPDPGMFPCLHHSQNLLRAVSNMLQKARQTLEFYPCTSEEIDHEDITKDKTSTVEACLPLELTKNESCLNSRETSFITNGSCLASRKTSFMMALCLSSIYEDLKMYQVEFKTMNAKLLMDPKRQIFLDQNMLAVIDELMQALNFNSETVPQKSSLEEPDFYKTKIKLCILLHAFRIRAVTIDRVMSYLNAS
T2 sequence (P29460 23-328, chain 2 of 2): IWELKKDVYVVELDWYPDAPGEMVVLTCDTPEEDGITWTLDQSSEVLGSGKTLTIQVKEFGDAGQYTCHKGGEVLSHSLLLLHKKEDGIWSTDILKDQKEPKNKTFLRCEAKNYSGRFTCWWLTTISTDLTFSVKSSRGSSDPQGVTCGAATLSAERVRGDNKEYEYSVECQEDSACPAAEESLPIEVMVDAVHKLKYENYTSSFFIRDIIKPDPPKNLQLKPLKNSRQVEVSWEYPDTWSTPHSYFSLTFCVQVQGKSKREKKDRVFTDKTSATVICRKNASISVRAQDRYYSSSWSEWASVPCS
T1 sequence (Q9NPF7 20-189, chain 1 of 2): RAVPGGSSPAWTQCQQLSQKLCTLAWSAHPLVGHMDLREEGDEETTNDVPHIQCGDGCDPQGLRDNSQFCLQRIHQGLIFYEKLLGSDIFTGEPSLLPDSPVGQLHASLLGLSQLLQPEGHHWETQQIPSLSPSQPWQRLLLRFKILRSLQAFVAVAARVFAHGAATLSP
T1 sequence (P29460 23-328, chain 2 of 2): as the sequence (P29460 23-328, chain 2 of 2) above

ACAGGCAAGGUAAUUGGGUAGUGAGGGCUGGGUGU (mixed, deoxy A,G; 2'-OMe C,U) [ARC896]
binding result [1]: no binding

B1: AMX91-B8 (ssRNA)
RNA: GGGAAAAGCGAAUCAUACACAAGAAUCCUGGCUUCGCAUAGUGUAUGGGUAGUACGACAGCGCGUGCUCCGCCAGAGACCAACCGAGAA
modifications: 2'-F all C and U (rRfY)
Kd [2]: 17.6 nM
Kd [3]: 409 nM

B2: AMX84-C11 (ssRNA)
RNA: GGGAAAAGCGAAUCAUACACAAGAAUGGUCGGAAUCUCUGGCGCCACGCUGAGUAUAGACGGAAGCUCCGCCAGAGACCAACCGAGAA
modifications: 2'-F all C and U (rRfY)
Kd [2]: 15.5 nM
Kd [3]: 286 nM

GGCGGUACGGGGAGUGUGGGUUGGG (mixed, deoxy A,G; 2'-OMe C,U) [ARC1171]
binding result [1]: no binding

GGCGGUUACGGGGGAUGCGGGUGGG (mixed, 2'-deoxy A and G, 2'-OMe C and U (dRmY)) [ARC981]
binding result ([1]; label: 5'-32P): no binding

B3: AMX86-D11 (ssRNA)
RNA: GGGAAAAGCGAAUCAUACACAAGAUAGCGUCUAUGAUGGCGGAGAAGCAAGUGUAGCAUAACAGGCUCCGCCAGAGACCAACCGAGAA
modifications: 2'-F all C and U (rRfY)
Kd [2]: 199 nM
Kd [3]: 114 nM

GGCAAGGUAAUUGGGAAGUGUGGGCUGGG (mixed, 2'-deoxy A and G, 2'-OMe C and U (dRmY)) [ARC894]
binding result ([1]; label: 5'-32P): no binding

GGCGGUACGGGGGGAGUGGGCUGGG (mixed, deoxy A,G; 2'-OMe C,U) [ARC1170]
binding result [1]: no binding

B4: AMX84-A10 (ssRNA)
RNA: GGGAAAAGCGAAUCAUACACAAGAAGUUUUUUGUGCUCUGAGUACUCAGCGUCCGUAAGGGAUAUGCUCCGCCAGAGACCAACCGAGAA
modifications: 2'-F all C and U (rRfY)
binding result [4]: no binding
Kd [2]: 22.3 nM

B5: ARC1622 (mixed)
RNA: ACAGGCAAGUAAUUGGGGAGUGCGGGCGGGGUGU
modifications: 2'-OMe C,U and G16,G17,G24,G25,G30,G31; other A,G deoxy; PS 6-7,7-8,8-9,10-11,11-12,14-15; 3'-idT [PS 6-7,7-8,8-9,10-11,11-12,14-15; 2'-OMe at 2,6,10,13,14,16,17,21,23,24,25,27,30,31,32,34; other A,G deoxy; 3'-inverted dT at 35]
IC50 [5]: 9 nM
Kd [6]: 0.3 nM

B6: ARC1755 (mixed)
RNA: ACAGGCAAGUAAUUGGGGAGUGCGGGCGGGGUGU
modifications: 2'-OMe C,U and most purines; PS 2-3,6-7,11-12,14-15; 3'-idT [2'-OMe C2,C6,U10,U13,U14,U21,C23,C27,U32,U34 and most purines (positions not stated); PS 2-3,6-7,11-12,14-15 (N = PS linkage, left out); 3'-inverted dT 35]
IC50 [5]: 68 nM
Kd [6]: 0.8 nM

B7: ARC1623 (mixed)
RNA: ACAGGCAAGUAAUUGGGGAGUGCGGGCGGGGUGU
modifications: 2'-OMe C,U and G16,G17,G24,G25,G30,G31; other A,G deoxy; PS 17-18,18-19,19-20,21-22; 3'-idT [2'-OMe C2,C6,U10,U13,U14,G16,G17,U21,C23,G24,G25,C27,G30,G31,U32,U34; other A,G deoxy; PS 17-18,18-19,19-20,21-22 (N = PS linkage, left out); 3'-inverted dT 35]
IC50 [5]: 5 nM

B8: ARC1625 (mixed)
RNA: ACAGGCAAGUAAUUGGGGAGUGCGGGCGGGGUGU
modifications: 2'-OMe C,U and G16,G17,G24,G25,G30,G31; other A,G deoxy; PS 32-33; 3'-idT [2'-OMe C2,C6,U10,U13,U14,G16,G17,U21,C23,G24,G25,C27,G30,G31,U32,U34; other A,G deoxy; PS 32-33 (N = PS linkage, left out); 3'-inverted dT 35]
IC50 [5]: 4 nM

B9: ARC1626 (mixed)
RNA: ACAGGCAAGUAAUUGGGGAGUGCGGGCGGGGUGU
modifications: 2'-OMe C,U and G16,G17,G24,G25,G30,G31; other A,G deoxy; multiple PS; 3'-idT [2'-OMe C2,C6,U10,U13,U14,G16,G17,U21,C23,G24,G25,C27,G30,G31,U32,U34; other A,G deoxy; PS 2-3,3-4,4-5,6-7,7-8,8-9,10-11,11-12,14-15,17-18,18-19,19-20,21-22,25-26,27-28,28-29,32-33 (N = PS linkage, left out); 3'-inverted dT 35]
IC50 [5]: 12 nM

B10: AMX86-D6 (ssRNA)
RNA: GGGAAAAGCGAAUCAUACACAAGAUUAGGCGUCGUGACAAUAACUGGUCCACGAGCAUGUCAGUGCUCCGCCAGAGACCAACCGAGAA
modifications: 2'-F all C and U (rRfY)
binding result [4]: no binding
Kd [2]: 25 nM

B11: AMX86-G10 (ssRNA)
RNA: GGGAAAAGCGAAUCAUACACAAGAGUCAUGGCUUACAAUUGAAACAAGAGCUCGCGUGACACAUGCUCCGCCAGAGACCAACCGAGAA
modifications: 2'-F all C and U (rRfY)
Kd [2]: 73.7 nM
Kd [3]: 356 nM

B12: AMX84-F11 (ssRNA)
RNA: GGGAAAAGCGAAUCAUACACAAGAUGUGCUUGAGUUAAAUCUCAUCGUCCCCGUUUGGGGAUAUGCUCCGCCAGAGACCAACCGAGAA
modifications: 2'-F all C and U (rRfY)
binding result [4]: no binding
Kd [2]: 16.6 nM

B13: AMX86-D5 (ssRNA)
RNA: GGGAAAAGCGAAUCAUACACAAGAGAGGUAUGUGGUUUUGCGGAGCAACUCGUGUCAGCGGUCAGCUCCGCCAGAGACCAACCGAGAA
modifications: 2'-F all C and U (rRfY)
binding result [4]: no binding
Kd [2]: 27.4 nM

B14: AMX84-B10 (ssRNA)
RNA: GGGAAAAGCGAAUCAUACACAAGAAGUGCUUCAUGCGGCAAACUGCAUGACGUCGAAUAGAUAUGCUCCGCCAGAGACCAACCGAGAA
modifications: 2'-F all C and U (rRfY)
binding result [4]: no binding
Kd [2]: 21.8 nM
